Measured values published in patent publication US20160185837A1 (AstraZeneca / MedImmune, published 2016).
Changes are numbered by the printed parent chain.

B1: IP272 (Fc fusion)
chain: YSEGTFTSDYSKLLEEEAVRLFIEWLLAQKAPPGGSGSTASSGSGSATGGGGAATHTCPPC
B2: IP273 (Fc fusion)
chain: B1 chain with L27V, A28K, Q29G, K30P, P32A, P33A
B3: IP274 (Fc fusion)
chain: YSEGTFTSDYSKLLEKEAVRLFIEWLLKGPGGGGGSGGGGSGGGGSGGGGSATHTCPPC
B4: IP276 (Fc fusion)
chain: YSEGTFTSDYSKLLEEEAVRLFIEWLVKGPGGGGGGGGGGGGGGGGGATHTCPPC
B5: IP278 (Fc fusion)
chain: YSEGTFTSDYSKLLEEEAVRLFIEWLVKGPPSSGAPPPSGGGGGSGGGGSGGGGSGGGGSATHTCPPC
B6: IP279 (Fc fusion)
chain: YSEGTFTSDYSKLLEEEAVRLFIEWLVKGPSSGAPPPSGGGGGSGGGGSGGGGSGGGGSATHTCPPC
B7: IP280 (Fc fusion)
chain: B5 chain with P30G
B8: IP291 (Fc fusion)
chain: YSEGTFTSDYSKLLEEECVRLFIEWLVKGGPGGGAPPPGCGGGGGGGGGGGGGGGGGACPPC
B9: IP292 (Fc fusion)
chain: B8 chain with C18A, L21C, P38C, C40G
B10: IP293 (Fc fusion)
chain: B4 chain with L21C, W25C, A48G, T49G, H50G, T51A
B11: IP294 (Fc fusion)
chain: B4 chain with E24C, K28C, A48G, T49G, H50G, T51A
B12: IP295 (Fc fusion)
chain: B5 chain with V27L, K28A, P30G
B13: IP296 (Fc fusion)
chain: YSEGTFTSDYSKLLEEEAVRCFIEWLVKGGPSSGAPPCSGGGGGGGGGGGGGGGGGGGGGGGGACPPC

What follows are binders tested against T1, rat GIP receptor (rat, UniProt P43219 19-455) (assay: cell-based or functional assay).
T1 sequence (looked up): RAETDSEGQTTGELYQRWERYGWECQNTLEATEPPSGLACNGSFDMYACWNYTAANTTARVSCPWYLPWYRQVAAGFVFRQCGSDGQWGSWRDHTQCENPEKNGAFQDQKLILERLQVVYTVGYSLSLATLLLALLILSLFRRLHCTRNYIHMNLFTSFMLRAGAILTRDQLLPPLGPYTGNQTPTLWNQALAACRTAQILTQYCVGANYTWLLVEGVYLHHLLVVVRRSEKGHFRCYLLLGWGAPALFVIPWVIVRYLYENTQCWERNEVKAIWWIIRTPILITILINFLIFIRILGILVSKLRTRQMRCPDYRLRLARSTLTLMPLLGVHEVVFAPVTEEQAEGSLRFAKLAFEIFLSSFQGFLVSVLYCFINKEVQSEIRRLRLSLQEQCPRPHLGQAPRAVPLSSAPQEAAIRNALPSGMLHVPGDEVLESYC

| Binder | cAMP EC50 | cAMP EC50, Batch 2 | cAMP EC50, Batch 3 | cAMP EC50, Batch 4 |
| --- | --- | --- | --- | --- |
| B1 | 0.048 nM |  |  |  |
| B2 | 0.09 nM |  |  |  |
| B3 | 0.028 nM |  |  |  |
| B4 | 0.26 nM |  |  |  |
| B5 | 0.13 nM |  |  |  |
| B6 | 0.097 nM |  |  |  |
| B7 | 0.046 nM |  |  |  |
| B8 | 1.4 nM |  |  |  |
| B9 | 0.29 nM | 0.186 nM |  |  |
| B10 | 16 nM |  |  |  |
| B11 | 100 nM |  |  |  |
| B12 | 0.041 nM | 0.0658 nM | 0.025 nM |  |
| B13 | 0.46 nM |  |  | 0.14 nM |

Each binder was assayed against T2, human GIP receptor (human, UniProt P48546 22-466) (assay: cell-based or functional assay).
T2 sequence (looked up): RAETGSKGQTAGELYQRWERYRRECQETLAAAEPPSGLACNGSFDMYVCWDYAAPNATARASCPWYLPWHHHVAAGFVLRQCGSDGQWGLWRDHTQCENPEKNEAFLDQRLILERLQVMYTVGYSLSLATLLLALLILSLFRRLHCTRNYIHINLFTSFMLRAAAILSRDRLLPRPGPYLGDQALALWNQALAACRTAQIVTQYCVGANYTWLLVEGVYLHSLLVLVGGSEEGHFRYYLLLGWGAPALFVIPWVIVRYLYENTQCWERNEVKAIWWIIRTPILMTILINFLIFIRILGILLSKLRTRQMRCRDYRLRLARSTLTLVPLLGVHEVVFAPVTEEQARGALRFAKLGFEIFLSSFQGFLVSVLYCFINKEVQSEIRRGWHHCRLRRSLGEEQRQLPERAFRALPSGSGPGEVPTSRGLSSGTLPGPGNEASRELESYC

| Binder | cAMP EC50 | cAMP EC50, Batch 2 | cAMP EC50, Batch 3 | cAMP EC50, Batch 4 |
| --- | --- | --- | --- | --- |
| B1 | 0.011 nM |  |  |  |
| B2 | 0.0084 nM |  |  |  |
| B3 | 0.017 nM | 0.014 nM |  |  |
| B4 | 0.013 nM |  |  |  |
| B5 | 0.011 nM |  |  |  |
| B6 | 0.01 nM |  |  |  |
| B7 | 0.0056 nM | 0.0045 nM | 0.0064 nM |  |
| B8 | 0.12 nM |  |  |  |
| B9 | 0.043 nM | 0.046 nM |  |  |
| B10 | 1.2 nM |  |  |  |
| B11 | 1.3 nM |  |  |  |
| B12 | 0.0043 nM | 0.012 nM | 0.0086 nM |  |
| B13 | 0.018 nM | 0.021 nM | 0.014 nM | 0.011 nM |

These binders were tested against human GLP-1 receptor (human, UniProt P43220 24-463) (assay: cell-based or functional assay).

| Binder | cAMP EC50 | cAMP EC50, Batch 2 | cAMP EC50, Batch 3 | cAMP EC50, Batch 4 |
| --- | --- | --- | --- | --- |
| B1 | 0.53 nM |  |  |  |
| B2 | 0.1 nM |  |  |  |
| B3 | 0.36 nM | 0.2 nM |  |  |
| B4 | 0.16 nM |  |  |  |
| B5 | 0.13 nM |  |  |  |
| B6 | 0.1 nM |  |  |  |
| B7 | 0.077 nM | 0.058 nM | 0.08 nM |  |
| B8 | 12 nM |  |  |  |
| B9 | 0.26 nM | 1.1 nM |  |  |
| B10 | 1.6 nM |  |  |  |
| B11 | 27 nM |  |  |  |
| B12 | 0.091 nM | 0.14 nM | 0.15 nM |  |
| B13 | 0.57 nM | 0.39 nM | 0.37 nM | 0.29 nM |

The binders below were run against human glucagon receptor (human, UniProt P47871 26-477) (assay: cell-based or functional assay).

| Binder | cAMP EC50 | cAMP EC50, Batch 2 | cAMP EC50, Batch 3 | cAMP EC50, Batch 4 |
| --- | --- | --- | --- | --- |
| B1 | 1700 nM |  |  |  |
| B2 | 670 nM |  |  |  |
| B3 | 38 nM | 30 nM |  |  |
| B4 | 1500 nM |  |  |  |
| B5 | 78 nM |  |  |  |
| B6 | 170 nM |  |  |  |
| B7 | 520 nM | 270 nM | 280 nM |  |
| B8 | > 10600 nM |  |  |  |
| B9 | > 13600 nM | > 14900 nM |  |  |
| B10 | > 13000 nM |  |  |  |
| B11 | > 6810 nM |  |  |  |
| B12 | 41 nM | 32 nM | 23 nM |  |
| B13 | > 1120 nM | > 784 nM | > 4490 nM | 6700 nM |

The binders below were run against T3, rat GLP-1 receptor (rat, UniProt P32301 22-463) (assay: cell-based or functional assay).
T3 sequence (looked up): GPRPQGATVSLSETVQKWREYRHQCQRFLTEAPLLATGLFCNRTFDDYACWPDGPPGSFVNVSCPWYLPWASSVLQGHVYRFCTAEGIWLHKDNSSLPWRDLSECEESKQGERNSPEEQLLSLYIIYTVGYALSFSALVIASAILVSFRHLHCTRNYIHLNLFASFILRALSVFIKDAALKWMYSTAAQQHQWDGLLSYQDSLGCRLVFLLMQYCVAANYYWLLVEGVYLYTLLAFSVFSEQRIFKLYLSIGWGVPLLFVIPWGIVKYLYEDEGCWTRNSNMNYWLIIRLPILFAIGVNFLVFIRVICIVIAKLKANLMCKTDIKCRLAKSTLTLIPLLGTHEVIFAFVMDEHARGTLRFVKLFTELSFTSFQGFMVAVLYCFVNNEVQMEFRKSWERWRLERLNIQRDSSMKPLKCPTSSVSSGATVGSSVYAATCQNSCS

| Binder | cAMP EC50 | cAMP EC50, Batch 2 | cAMP EC50, Batch 3 | cAMP EC50, Batch 4 |
| --- | --- | --- | --- | --- |
| B1 | 0.085 nM |  |  |  |
| B2 | 0.02 nM |  |  |  |
| B3 | 0.057 nM |  |  |  |
| B4 | 0.028 nM |  |  |  |
| B5 | 0.026 nM |  |  |  |
| B6 | 0.024 nM |  |  |  |
| B7 | 0.027 nM |  |  |  |
| B8 | 3 nM |  |  |  |
| B9 | 0.037 nM | 0.0432 nM |  |  |
| B10 | 0.45 nM |  |  |  |
| B11 | 7.1 nM |  |  |  |
| B12 | 0.023 nM | 0.018 nM | 0.0286 nM |  |
| B13 | 0.055 nM | 0.028 nM |  | 0.027 nM |

What follows are binders tested against T4, mouse GLP-1 receptor (mouse, UniProt O35659 22-463) (assay: cell-based or functional assay).
T4 sequence (looked up): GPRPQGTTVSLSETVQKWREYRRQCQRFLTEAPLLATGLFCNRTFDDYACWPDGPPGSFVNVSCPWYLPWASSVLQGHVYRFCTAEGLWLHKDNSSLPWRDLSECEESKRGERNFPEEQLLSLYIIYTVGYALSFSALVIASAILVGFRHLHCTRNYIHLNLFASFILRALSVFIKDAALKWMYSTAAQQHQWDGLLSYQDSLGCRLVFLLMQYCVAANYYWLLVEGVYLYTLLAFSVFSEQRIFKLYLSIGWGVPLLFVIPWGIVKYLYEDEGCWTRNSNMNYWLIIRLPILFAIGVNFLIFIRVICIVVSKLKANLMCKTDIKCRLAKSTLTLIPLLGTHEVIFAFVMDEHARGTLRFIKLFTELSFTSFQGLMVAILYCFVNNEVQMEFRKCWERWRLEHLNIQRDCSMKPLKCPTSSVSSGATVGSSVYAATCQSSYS

| Binder | cAMP EC50 | cAMP EC50, Batch 2 | cAMP EC50, Batch 3 | cAMP EC50, Batch 4 |
| --- | --- | --- | --- | --- |
| B1 | 2.3 nM |  |  |  |
| B2 | 0.19 nM |  |  |  |
| B3 | 1.2 nM |  |  |  |
| B4 | 0.34 nM |  |  |  |
| B5 | 0.32 nM |  |  |  |
| B6 | 0.22 nM |  |  |  |
| B7 | 0.21 nM |  |  |  |
| B8 | 120 nM |  |  |  |
| B9 | 1.2 nM | 1.32 nM |  |  |
| B10 | 13 nM |  |  |  |
| B11 | 350 nM |  |  |  |
| B12 | 0.35 nM | 0.241 nM | 0.34 nM |  |
| B13 | 1.4 nM | 0.6 nM |  | 0.64 nM |

These binders were tested against T5, mouse GIP receptor (mouse, UniProt Q0P543 19-460) (assay: cell-based or functional assay).
T5 sequence (looked up): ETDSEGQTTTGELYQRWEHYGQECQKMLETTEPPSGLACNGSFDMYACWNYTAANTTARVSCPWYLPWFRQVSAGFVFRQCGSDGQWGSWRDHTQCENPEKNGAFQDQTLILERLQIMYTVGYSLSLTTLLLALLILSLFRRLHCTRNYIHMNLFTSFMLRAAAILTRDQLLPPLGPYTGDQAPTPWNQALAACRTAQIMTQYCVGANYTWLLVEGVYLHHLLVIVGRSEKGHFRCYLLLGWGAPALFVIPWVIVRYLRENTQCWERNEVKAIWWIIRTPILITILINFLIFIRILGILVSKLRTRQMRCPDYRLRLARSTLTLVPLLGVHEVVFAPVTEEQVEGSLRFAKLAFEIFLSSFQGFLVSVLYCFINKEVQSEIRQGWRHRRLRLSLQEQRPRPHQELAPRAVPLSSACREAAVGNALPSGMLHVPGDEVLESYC

| Binder | cAMP EC50 | cAMP EC50, Batch 2 | cAMP EC50, Batch 3 | cAMP EC50, Batch 4 |
| --- | --- | --- | --- | --- |
| B1 | 11 nM |  |  |  |
| B2 | 85 nM |  |  |  |
| B3 | 1 nM |  |  |  |
| B4 | 510 nM |  |  |  |
| B5 | 85 nM |  |  |  |
| B6 | 43 nM |  |  |  |
| B7 | 8.8 nM |  |  |  |
| B8 | 680 nM |  |  |  |
| B9 | 66 nM | 55.4 nM |  |  |
| B10 | 7800 nM |  |  |  |
| B11 | > 6800 nM |  |  |  |
| B12 | 0.66 nM | 1.2 nM | 0.571 nM |  |
| B13 | 110 nM | 55 nM |  | 65 nM |
